7 molecules from US20080286228A1 (published 2008) can be followed below.

Test [1] addresses T1, C5a receptor expressed on the surface of human PMNs (human, UniProt P21730 1-350).
T1 sequence (looked up): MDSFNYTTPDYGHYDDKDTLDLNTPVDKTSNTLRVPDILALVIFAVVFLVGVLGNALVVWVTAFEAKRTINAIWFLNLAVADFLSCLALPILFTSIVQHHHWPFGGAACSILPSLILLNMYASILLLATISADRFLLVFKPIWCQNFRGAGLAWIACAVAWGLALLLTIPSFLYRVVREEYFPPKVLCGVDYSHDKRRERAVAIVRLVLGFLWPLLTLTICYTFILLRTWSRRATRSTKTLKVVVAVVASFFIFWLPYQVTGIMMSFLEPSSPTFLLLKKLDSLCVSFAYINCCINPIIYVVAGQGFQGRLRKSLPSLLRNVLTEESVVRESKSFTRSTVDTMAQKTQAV
Put plainly: cell-based or functional assay.

Test [2] deals with T1, C5a receptor expressed on the surface …. Kind of test: competition with 125I-C5a on intact human PMNs.
Protocol: Statistical analysis of the values obtained from pharmacologic assays was performed using one-way analysis of variance (ANOVA).
The target is the same in test [3]. Kind of test: cell-based or functional assay. The source holds these as a separate data set.

Non-standard residues stand in square brackets, D forms with d. No end group written: not given here.

One may read the IC50 as the concentration needed to halve the response being measured. Lower therefore signals greater potency.

B1: C5a C-terminal decapeptide agonist analog YSFKPMPLaR (peptide)
peptide: YSFKPMPL[dA]R
notes: synthetic peptide; also called C5a agonist
As to B1, in test [1], the “smooth muscle contraction of human umbilical artery, EC50” value (from here on “smooth muscle contraction … EC50”) turned out to be 0.01 µM and the “smooth muscle contraction of human umbilical artery, pD2” value (shortened to “smooth muscle contraction … pD2”) was 6.99 -log EC50 (M). In test [2], the “pD2 (-log IC50 (M))” value is 5.63 -log IC50 (M).
IPQSLDSWWTSLRRYSFKPMPL[dA]RG (synthetic peptide) [IPQSLDSWWTSLRRYSFKPMPLaRG]: in test [1], the “smooth muscle contraction … EC50” value was 6.78 µM and the “smooth muscle contraction … pD2” value is 5.17 -log EC50 (M). Also, in test [2], the half-maximal inhibitory concentration (IC50) is 17000 nM and the “pD2 (-log IC50 (M))” value is 4.77 -log IC50 (M). For the same molecule, in test [3], the “MPO release from human PMNs, EC50” value was 2.56 µM and the “MPO release from human PMNs, pD2” value is 5.59 -log EC50 (M).

B2: natural C5a (ligand, UniProt P01031 678-751, looked up)
chain: TLQKKIEEIAAKYKHSVVKKCCYDGACVNNDETCEQRAARISLGPRCIKAFTECCVVASQLRANISHKDMQLGR
notes: C5a is a fragment of it
For B2, in test [1], the “smooth muscle contraction … EC50” value worked out at 0.002 µM and the “smooth muscle contraction … pD2” value is 8.77 -log EC50 (M). Further, in test [2], the concentration for half-maximal inhibition (IC50) was 0.4 nM and the “pD2 (-log IC50 (M))” value was 9.43 -log IC50 (M). In test [3], the “MPO release from human PMNs, EC50” value stood at 0.003 µM and the “MPO release from human PMNs, pD2” value is 8.5 -log EC50 (M).
IPQSLDSWWTSLYSFKPMPL[dA]R (synthetic peptide) [IPQSLDSWWTSLYSFKPMPLaR]: in test [1], the “smooth muscle contraction … EC50” value turned out to be 0.21 µM and the “smooth muscle contraction … pD2” value is 6.68 -log EC50 (M). For the same molecule, in test [2], the 50% inhibitory concentration (IC50) is 3690 nM and the “pD2 (-log IC50 (M))” value was 5.43 -log IC50 (M). Further, in test [3], the “MPO release from human PMNs, EC50” value came to 1.58 µM and the “MPO release from human PMNs, pD2” value is 5.8 -log EC50 (M).

B3: IPQSLDSWWTSLRRYSFKPMPLaR (peptide)
peptide: IPQSLDSWWTSLRRYSFKPMPL[dA]R
notes: synthetic peptide; also called double-Arg-linked C5a-active construct
With B3, in test [1], the “smooth muscle contraction … EC50” value was found to be 0.161 µM and the “smooth muscle contraction … pD2” value was 6.79 -log EC50 (M). For the same molecule, in test [2], the IC50 amounted to 416 nM and the “pD2 (-log IC50 (M))” value is 6.38 -log IC50 (M). In addition, in test [3], the “MPO release from human PMNs, EC50” value came to 0.54 µM and the “MPO release from human PMNs, pD2” value was 6.27 -log EC50 (M).

B4: IPQSLDSWWTSLRVRRYSFKPMPLaR (peptide)
peptide: IPQSLDSWWTSLRVRRYSFKPMPL[dA]R
notes: synthetic peptide; also called RVRR-containing C5a-active construct
B4: in test [1], the “smooth muscle contraction … EC50” value is 0.18 µM and the “smooth muscle contraction … pD2” value was 6.67 -log EC50 (M). In test [2], the IC50 is 529 nM and the “pD2 (-log IC50 (M))” value is 6.28 -log IC50 (M). Also, in test [3], the “MPO release from human PMNs, EC50” value came out at 2.15 µM and the “MPO release from human PMNs, pD2” value is 5.61 -log EC50 (M).
Regarding YSFKPMPL[dA]RRRIPQSLDSWWTSL (synthetic peptide) [YSFKPMPLa[…]], in test [1], the “smooth muscle contraction … EC50” value came out at 39.4 µM and the “smooth muscle contraction … pD2” value is 4.41 -log EC50 (M). Further, in test [2], the concentration for half-maximal inhibition (IC50) was determined as 465000 nM and the “pD2 (-log IC50 (M))” value was 3.33 -log IC50 (M). Besides, in test [3], the “MPO release from human PMNs, EC50” value is greater than 1000 µM and the “MPO release from human PMNs, pD2” value was > 3 -log EC50 (M).
